Key:
[1] = test system: T1, NC(=O)c1ccc[n+]([C@@H]2O[C@H](COP(=O)(O)OP(=O)(O)OC[C@H]3O[C@@H](n4cnc5c(N)ncnc54)[C@H](O)[C@@H]3O)[C@@H](O)[C@H]2O)c1; test: purified protein; assay type: biochemical, Bacillus sp. ZJ; conditions: 100 mM sodium phosphate pH 8.0, 25 °C, glucose given as 200 µM (standard assay 200 mM), NAD 0.01-0.2 mM, kcat per subunit, varied: cofactor
T1 construct: full length, 261 residues (28 kDa predicted, 30 kDa SDS-PAGE, 120 kDa native), pET28a (NdeI/BamHI) in E. coli BL21(DE3), Ni-NTA purified, His tag removal not mentioned; N-terminus from primer MYSDLA

[2] = test system: T2, NC(=O)c1ccc[n+]([C@@H]2O[C@H](COP(=O)(O)OP(=O)(O)OC[C@H]3O[C@@H](n4cnc5c(N)ncnc54)[C@H](OP(=O)(O)O)[C@@H]3O)[C@@H](O)[C@H]2O)c1; test: purified protein; assay type: biochemical, Bacillus sp. ZJ; conditions: 100 mM sodium phosphate pH 8.0, 25 °C, glucose given as 200 µM (standard assay 200 mM), NADP 0.01-0.2 mM, kcat per subunit, varied: cofactor
T2 construct: full length, 261 residues (28 kDa predicted, 30 kDa SDS-PAGE, 120 kDa native), pET28a (NdeI/BamHI) in E. coli BL21(DE3), Ni-NTA purified, His tag removal not mentioned; N-terminus from primer MYSDLA

[3] = target: T3, BzGDH (Bacillus sp. (in: firmicutes), UniProt A0A068FPP9); test: NADH absorbance at […] nm, nonlinear Michaelis-Menten fit; assay type: biochemical, Bacillus sp. ZJ; conditions: 100 mM sodium phosphate pH 8.0, 25 °C; 1 mM NAD; glucose 1-200 mM; kcat per subunit
T3 construct: full length, 261 residues (28 kDa predicted, 30 kDa SDS-PAGE, 120 kDa native), pET28a (NdeI/BamHI) in E. coli BL21(DE3), Ni-NTA purified, His tag removal not mentioned; N-terminus from primer MYSDLA

[4] = target: NAD(P)-dependent glucose 1-dehydrogenase from Bacillus sp. ZJ (Bacillus sp. ZJ); test: SEC; gel filtration on a Zorbax Bio-series GF-450 column; standards lysozyme (14.3 kDa), chicken ovalbumin (45 kDa), bovine serum albumin fraction V (67 kDa), goat IgG (150 kDa); native mass estimated 120 kDa against 30 kDa on SDS-PAGE

BzGDH (Bacillus sp. (in: firmicutes))
Km [1]: 0.072 ± 0.009 mM
kcat [1]: 84.5 ± 2.17 s⁻¹
kcat/Km [1]: 1.17e+06 M⁻¹ s⁻¹
Km [2]: 0.404 ± 0.088 mM
kcat [2]: 74 ± 2.68 s⁻¹
kcat/Km [2]: 183000 M⁻¹ s⁻¹

OC[C@H]1OC(O)[C@H](O)[C@@H](O)[C@@H]1O (stereo partly drawn) [D-glucose]
Km [3]: 17.1 ± 0.946 mM

NAD(P)-dependent glucose 1-dehydrogenase from Bacillus sp. ZJ (enzyme)
stoichiometry N [4]: 4

From PMC5486021, “Biochemical and Computational Insights on a Novel Acid-Resistant and Thermal-Stable Glucose 1-Dehydrogenase” (International Journal of Molecular Sciences, 2017)
